In IntAct's records for PubMed 31515488:

B1: X antigen family member 3 (Homo sapiens), Q8WTP9 (parent)
chain: MIWRGRSTYRPRPRRSVPPPELIGPMLEPGDEEPQQEEPPTESRDPAPGQEREEDQGAAETQVPDLEADLQELSQSKTGGECGNGPDDQGKILPKSEQFKMPEGGDRQPQV
partner: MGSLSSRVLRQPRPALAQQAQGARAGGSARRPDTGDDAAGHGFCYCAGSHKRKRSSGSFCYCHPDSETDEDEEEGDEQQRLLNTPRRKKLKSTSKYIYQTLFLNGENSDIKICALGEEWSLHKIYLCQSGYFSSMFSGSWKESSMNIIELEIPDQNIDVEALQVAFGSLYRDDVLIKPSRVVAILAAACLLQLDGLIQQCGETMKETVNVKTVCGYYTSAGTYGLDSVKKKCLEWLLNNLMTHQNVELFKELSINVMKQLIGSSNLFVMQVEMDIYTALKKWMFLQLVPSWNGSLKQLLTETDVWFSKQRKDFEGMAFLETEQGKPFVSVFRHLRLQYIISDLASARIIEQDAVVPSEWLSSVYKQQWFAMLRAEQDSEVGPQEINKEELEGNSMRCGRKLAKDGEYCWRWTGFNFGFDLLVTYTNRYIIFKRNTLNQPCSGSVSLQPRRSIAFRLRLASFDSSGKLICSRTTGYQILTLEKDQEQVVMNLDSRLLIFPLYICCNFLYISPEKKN
B2: Cytochrome b-245 chaperone 1 (Homo sapiens), Q9BQA9 (parent)
chain: MYLQVETRTSSRLHLKRAPGIRSWSLLVGILSIGLAAAYYSGDSLGWKLFYVTGCLFVAVQNLEDWEEAIFDKSTGKVVLKTFSLYKKLLTLFRAGHDQVVVLLHDVRDVSVEEEKVRYFGKGYMVVLRLATGFSHPLTQSAVMGHRSDVEAIAKLITSFLELHCLESPTELSQSSDSEAGDPASQS
partner: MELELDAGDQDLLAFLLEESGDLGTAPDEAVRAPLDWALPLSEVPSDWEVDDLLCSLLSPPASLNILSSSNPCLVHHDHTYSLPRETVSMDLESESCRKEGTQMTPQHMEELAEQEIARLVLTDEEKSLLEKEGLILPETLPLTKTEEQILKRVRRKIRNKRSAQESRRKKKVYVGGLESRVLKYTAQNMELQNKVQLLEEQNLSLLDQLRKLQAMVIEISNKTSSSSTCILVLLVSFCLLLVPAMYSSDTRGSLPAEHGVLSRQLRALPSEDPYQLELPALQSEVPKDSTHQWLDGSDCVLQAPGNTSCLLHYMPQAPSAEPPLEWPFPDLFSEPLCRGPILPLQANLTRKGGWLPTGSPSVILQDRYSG
B3: MIF4G domain-containing protein (Homo sapiens), A9UHW6 (parent)
chain: MGEPSREEYKIQSFDAETQQLLKTALKDPGAVDLEKVANVIVDHSLQDCVFSKEAGRMCYAIIQAESKQAGQSVFRRGLLNRLQQEYQAREQLRARSLQGWVCYVTFICNIFDYLRVNNMPMMALVNPVYDCLFRLAQPDSLSKEEEVDCLVLQLHRVGEQLEKMNGQRMDELFVLIRDGFLLPTGLSSLAQLLLLEIIEFRAAGWKTTPAAHKYYYSEVSD
partner: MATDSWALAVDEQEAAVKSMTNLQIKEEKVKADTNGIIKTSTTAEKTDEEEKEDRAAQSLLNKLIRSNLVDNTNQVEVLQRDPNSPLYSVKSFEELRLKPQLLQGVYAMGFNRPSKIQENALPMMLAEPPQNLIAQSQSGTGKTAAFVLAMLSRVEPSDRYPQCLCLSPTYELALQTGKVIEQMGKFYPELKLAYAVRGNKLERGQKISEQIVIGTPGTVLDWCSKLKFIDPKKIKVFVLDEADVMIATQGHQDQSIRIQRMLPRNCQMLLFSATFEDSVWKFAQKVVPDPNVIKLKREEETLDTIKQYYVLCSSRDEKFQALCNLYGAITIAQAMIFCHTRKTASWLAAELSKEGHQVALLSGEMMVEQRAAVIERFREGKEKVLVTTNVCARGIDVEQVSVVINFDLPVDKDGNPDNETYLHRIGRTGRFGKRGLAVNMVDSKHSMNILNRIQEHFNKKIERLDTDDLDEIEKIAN
B4: E3 ubiquitin-protein ligase Midline-1 (Homo sapiens), O15344 (parent)
chain: METLESELTCPICLELFEDPLLLPCAHSLCFNCAHRILVSHCATNESVESITAFQCPTCRHVITLSQRGLDGLKRNVTLQNIIDRFQKASVSGPNSPSETRRERAFDANTMTSAEKVLCQFCDQDPAQDAVKTCVTCEVSYCDECLKATHPNKKPFTGHRLIEPIPDSHIRGLMCLEHEDEKVNMYCVTDDQLICALCKLVGRHRDHQVAALSERYDKLKQNLESNLTNLIKRNTELETLLAKLIQTCQHVEVNASRQEAKLTEECDLLIEIIQQRRQIIGTKIKEGKVMRLRKLAQQIANCKQCIERSASLISQAEHSLKENDHARFLQTAKNITERVSMATASSQVLIPEINLNDTFDTFALDFSREKKLLECLDYLTAPNPPTIREELCTASYDTITVHWTSDDEFSVVSYELQYTIFTGQANVVSLCNSADSWMIVPNIKQNHYTVHGLQSGTKYIFMVKAINQAGSRSSEPGKLKTNSQPFKLDPKSAHRKLKVSHDNLTVERDESSSKKSHTPERFTSQGSYGVAGNVFIDSGRHYWEVVISGSTWYAIGLAYKSAPKHEWIGKNSASWALCRCNNNWVVRHNSKEIPIEPAPHLRRVGILLDYDNGSIAFYDALNSIHLYTFDVAFAQPVCPTFTVWNKCLTIITGLPIPDHLDCTEQLP
partner: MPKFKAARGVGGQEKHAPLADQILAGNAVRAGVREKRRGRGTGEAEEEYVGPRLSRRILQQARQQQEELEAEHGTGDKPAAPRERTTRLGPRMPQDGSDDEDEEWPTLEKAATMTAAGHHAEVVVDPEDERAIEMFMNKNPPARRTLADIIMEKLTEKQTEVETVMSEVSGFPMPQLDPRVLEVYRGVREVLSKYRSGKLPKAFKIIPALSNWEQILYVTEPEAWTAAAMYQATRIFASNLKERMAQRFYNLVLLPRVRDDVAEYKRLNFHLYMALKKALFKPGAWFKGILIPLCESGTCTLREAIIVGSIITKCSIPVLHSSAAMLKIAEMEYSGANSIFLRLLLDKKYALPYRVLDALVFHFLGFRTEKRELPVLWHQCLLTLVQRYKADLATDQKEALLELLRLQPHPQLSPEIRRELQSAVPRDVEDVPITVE
B5: Angiomotin (Homo sapiens), Q4VCS5 (parent)
chain: MRNSEEQPSGGTTVLQRLLQEQLRYGNPSENRSLLAIHQQATGNGPPFPSGSGNPGPQSDVLSPQDHHQQLVAHAARQEPQGQEIQSENLIMEKQLSPRMQNNEELPTYEEAKVQSQYFRGQQHASVGAAFYVTGVTNQKMRTEGRPSVQRLNPGKMHQDEGLRDLKQGHVRSLSERLMQMSLATSGVKAHPPVTSAPLSPPQPNDLYKNPTSSSEFYKAQGPLPNQHSLKGMEHRGPPPEYPFKGMPPQSVVCKPQEPGHFYSEHRLNQPGRTEGQLMRYQHPPEYGAARPAQDISLPLSARNSQPHSPTSSLTSGGSLPLLQSPPSTRLSPARHPLVPNQGDHSAHLPRPQQHFLPNQAHQGDHYRLSQPGLSQQQQQQQQQHHHHHHHQQQQQQQPQQQPGEAYSAMPRAQPSSASYQPVPADPFAIVSRAQQMVEILSDENRNLRQELEGCYEKVARLQKVETEIQRVSEAYENLVKSSSKREALEKAMRNKLEGEIRRMHDFNRDLRERLETANKQLAEKEYEGSEDTRKTISQLFAKNKESQREKEKLEAELATARSTNEDQRRHIEIRDQALSNAQAKVVKLEEELKKKQVYVDKVEKMQQALVQLQAACEKREQLEHRLRTRLERELESLRIQQRQGNCQPTNVSEYNAAALMELLREKEERILALEADMTKWEQKYLEENVMRHFALDAAATVAAQRDTTVISHSPNTSYDTALEARIQKEEEEILMANKRCLDMEGRIKTLHAQIIEKDAMIKVLQQRSRKEPSKTEQLSCMRPAKSLMSISNAGSGLLSHSSTLTGSPIMEEKRDDKSWKGSLGILLGGDYRAEYVPSTPSPVPPSTPLLSAHSKTGSRDCSTQTERGTESNKTAAVAPISVPAPVAAAATAAAITATAATITTTMVAAAPVAVAAAAAPAAAAAPSPATAAATAAAVSPAAAGQIPAAASVASAAAVAPSAAAAAAVQVAPAAPAPVPAPALVPVPAPAAAQASAPAQTQAPTSAPAVAPTPAPTPTPAVAQAEVPASPATGPGPHRLSIPSLTCNPDKTDGPVFHSNTLERKTPIQILGQEPDAEMVEYLI
partner: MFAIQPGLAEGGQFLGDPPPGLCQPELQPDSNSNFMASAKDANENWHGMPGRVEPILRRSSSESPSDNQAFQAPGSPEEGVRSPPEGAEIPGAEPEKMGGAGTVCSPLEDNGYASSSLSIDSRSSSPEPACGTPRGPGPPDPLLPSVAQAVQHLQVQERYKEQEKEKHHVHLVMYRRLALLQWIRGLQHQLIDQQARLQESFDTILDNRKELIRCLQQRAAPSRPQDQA

Variants of: B1
Details: with gmcl1_human GMCL1, Q96IK5

| effect of a mutation on the interaction | Variant |
| --- | --- |
| with no effect | I92F |

Variants of: B2
Details: with creb3_human CREB3, O43889

| effect of a mutation on the interaction | Variant |
| --- | --- |
| with no effect | R129W |

Variants of: B3
Details: with dd19a_human DDX19A

| effect of a mutation on the interaction | Variant |
| --- | --- |
| with no effect | E160K |

Variants of: B4
Details: with byst_human BYSL

| effect of a mutation on the interaction | Variant |
| --- | --- |
| disrupting interaction strength | D84N |

Variants of: B5
Details: with ca216_human C1orf216, Q8TAB5

| effect of a mutation on the interaction | Variant |
| --- | --- |
| with no effect | T899A |
